By stoichiometry N is commonly meant the number of molecules, sites or subunits per partner or assembly.

We go through two molecules from article PMC2064680 (The Journal of Cell Biology, 2006).

Several values for one entry are separate records, joined by “and”; a condition that tells them apart may be missing. Identical values can stand only once.

Test [1] concerns the target ESCRT-I purified from E. coli (Vps23, Vps28, Vps37) (yeast) (UniProt P25604). The experiment in a line: cross-linking.
Test [2] has as its target T1, ESCRT-I purified from E. coli (Vps23, Vps28, Vps37) (yeast, UniProt P25604 1-385; Q02767 1-242; Q99176 1-213).
T1 sequence (looked up) 1: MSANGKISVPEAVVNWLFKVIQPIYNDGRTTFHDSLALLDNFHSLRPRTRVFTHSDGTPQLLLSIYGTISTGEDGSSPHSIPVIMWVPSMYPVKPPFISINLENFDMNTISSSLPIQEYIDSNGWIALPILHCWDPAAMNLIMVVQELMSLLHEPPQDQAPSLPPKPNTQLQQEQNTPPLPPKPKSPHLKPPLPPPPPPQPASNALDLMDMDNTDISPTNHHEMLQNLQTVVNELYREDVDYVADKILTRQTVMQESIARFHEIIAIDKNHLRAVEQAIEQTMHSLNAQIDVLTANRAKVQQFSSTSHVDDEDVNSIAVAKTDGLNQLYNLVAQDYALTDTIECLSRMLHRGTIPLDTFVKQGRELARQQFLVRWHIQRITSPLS
T1 sequence (looked up) 2: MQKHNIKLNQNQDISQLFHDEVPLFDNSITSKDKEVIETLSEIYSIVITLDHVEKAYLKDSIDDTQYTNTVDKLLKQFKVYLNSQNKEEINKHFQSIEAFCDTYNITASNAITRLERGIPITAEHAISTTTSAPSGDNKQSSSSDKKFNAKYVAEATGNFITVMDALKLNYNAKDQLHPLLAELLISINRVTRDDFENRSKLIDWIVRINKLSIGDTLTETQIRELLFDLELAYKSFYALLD
T1 sequence (looked up) 3: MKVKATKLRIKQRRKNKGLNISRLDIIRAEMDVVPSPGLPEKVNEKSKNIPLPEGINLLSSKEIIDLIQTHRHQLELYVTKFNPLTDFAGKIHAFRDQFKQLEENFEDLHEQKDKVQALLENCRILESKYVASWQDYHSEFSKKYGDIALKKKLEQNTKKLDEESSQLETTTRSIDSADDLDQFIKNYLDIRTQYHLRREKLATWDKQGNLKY

On to “ESCRT-I purified from E. coli (Vps23, Vps28, Vps37) (from UniProt P25604 1-385; Q02767 1-242; Q99176 1-213) (complex)”, for which, in test [1], the stoichiometry N was 2 and 3.

B1: Mvb12, E. coli-expressed (unpublished in vitro analyses) (natural protein, yeast, UniProt P42939 1-101, looked up)
chain: MNNNVEELLRRIPLYNKYGKDFPQETVTRFQMPEFKLPALQPTRDLLCPWYEECDNITKVCQLHDSSNKKFDQWYKEQYLSKKPPGIVGNTLLSPSRKDNS
Take B1: in test [2], the “stoichiometry N” value worked out at 1.
